Measurements: patent US12012615B2, “Method of making induced pluripotent stem cells using p53 inhibitors” (Kyoto University, priority 2008, dated 2024)
Changes are numbered by the printed parent chain. Numbers in names are those of the source.

Columns and labels:
p53-null MEF = experiment: iPS cell generation from p53-null MEF with forced expression of p21; type: cell-based, mouse
HDF = experiment: iPS cell generation from HDF with p53-regulated genes, with or without the p53 shRNA; type: cell-based, human; conditions: four factors and the p53 shRNA; colonies counted day 28
Excerpt: Genes regulated (4 increased and 7 decreased) by p53 suppression were introduced into HDFs together with the four reprogramming factors (FIG. 24A) or the four reprogramming factors and the p53 shRNA (FIG. 24B). On day 24 (FIG. 24A) or day 28 (FIG. 24B) post-transduction, numbers of iPS cell colonies were counted. **; p<0.01 compared to DsRed control (n=3).
Among these we transduced four increased genes and seven decreased genes by retroviruses into HDF, together with either the four reprogramming factors alone, or with the four factors and the p53 shRNA.

[1] = system: Fibroblasts (MEF) from a fetal p53 hetero-deficient mouse having the Nanog reporter; experiment: Establishment of iPS cells (GFP-positive colonies) from MEFs with 4 factors and a p53 inhibitor; type: cell-based; conditions: 4 factors; 6 nM in medium from day 6; counted on day 20; compared with cells treated with DMSO
Procedure: The effects of a p53 inhibitor on the efficiency of establishment of iPS cells were examined. The retrovirus used for reprogramming was prepared by introducing a retrovirus expression vector (pMXs-Oct3/4, pMXs-Sox2, pMXs-Klf4, pMXs-cMyc) into Plat-E cells that had been sown to a 6-well culture plate (Falcon) at 0.6×10^6 cells per well on the previous day. The culture broth used was DMEM/10% FCS (DMEM (Nacalai tesque) supplemented with 10% fetal bovine serum), and cultured at 37° C. and 5% CO2. For vector transfer, 4.5 μL of the FuGene6 transfection reagent (Roche) was placed in 100 μL of Opti-MEM I Reduced-Serum Medium (Invitrogen), and this mixture was allowed to stand at room temperature for 5 minutes. Thereafter, 1.5 μg of each expression vector was added, and the mixture was further allowed to stand at room temperature for 15 minutes, and then added to Plat-E culture broth. On day 2, the Plat-E supernatant was exchanged with a fresh supply of the medium; on day 3, the culture supernatant was recovered and filtered through a 0.45 μm sterile filter (Whatman), polybrene (Nacalai) was added to obtain a concentration of 4 μg/mL, and this was used as the viral liquid.
Fibroblasts (MEF) were isolated from a fetal p53 hetero-deficient mouse having the Nanog reporter (13.5 days after fertilization). […] GFP-positive colonies were counted on day 20. […]

[2] = system: Fibroblasts (MEFs) from a fetal p53 hetero-deficient mouse having a Nanog reporter; experiment: Establishment of iPS cells from MEFs with 4 or 3 factors and the dominant negative mutant p53P275S; type: cell-based; conditions: compared with mutation-free p53 or DsRedExpress
Procedure: The function of endogenous p53 was inhibited using a dominant negative mutant of p53, and its influence on the efficiency of establishment of iPS cells was investigated. The dominant negative mutant used was p53P275S, prepared by causing a point mutation of the proline at the position 275 located in the genome-binding region of p53 to serine (Annemieke de Vries (2002). PNAS 99, 2948-2953).
The retrovirus used for reprogramming was prepared by introducing retrovirus expression vector (pMXs-Oct3/4, pMXs-Sox2, pMXs-Klf4, pMXs-cMyc, pMXs-p53P275S) into Plat-E cells that had been sown to a 6-well culture plate (Falcon) at 0.6×10^6 cells per well on the previous day (for how to prepare pMXs-p53P275S, see Example 6 below). The culture broth used was DMEM/10% FCS (DMEM (Nacalai tesque) supplemented with 10% fetal bovine serum), and cultured at 37° C. and 5% CO2. For vector transfer, 4.5 μL of the FuGene6 transfection reagent (Roche) was placed in 100 μL of Opti-MEM I Reduced-Serum Medium (Invitrogen), and this mixture was allowed to stand at room temperature for 5 minutes. Thereafter, 1.5 μg of each expression vector was added, and the mixture was further allowed to stand at room temperature for 15 minutes, and then added to Plat-E culture broth. […]
GFP-positive colonies were counted on day 21 for the 4 factors, and on day 28 for the 3 factors. […]

[3] = system: Oct4-GFP, p53-heterozygous MEF; experiment: iPS generation by the three factors co-transduced with wild-type or mutant p53, p53-heterozygous MEFs; type: cell-based, mouse; conditions: retroviral co-transduction, counted 28 days after transduction
Excerpt: (§1) FIGS. 13A and 13B show iPS generation from p53 heterozygous or homozygous MEFs by the three factors co-transduced with wild-type or mutant p53. […] After retroviral transduction, 5000 cells were collected and GFP-positive colonies were counted 28 days after the transduction. Data of three independent experiments are shown. […] After retroviral transduction, 5000 live cells were collected and GFP-positive colonies were counted 28 days after the transduction. Data of two independent experiments are shown.
(§2) We used either the Nanog-GFP or Oct3/4-GFP reporter system for sensitive and specific identification of iPS cells (Okita K. et al. Nature 448, 313 (2007)). […] The cells were infected next day (day 0) with retrovirus made from Plat-E. On day 5, cells were reseeded either at one cell per well of 96-plates by a cell sorter (FACS Aria, Beckton Dekinson) or 5000 cells per 100 mm-dish. Puromycin selection ([…]) was initiated on day 13 in the four-factor protocol and on day 19 in the three factor protocol. Numbers of GFP positive colonies were determined on day 21 for the four-factor protocol and on day 28 in the three factor protocol.
(§3) First, we tested the effect of dominant negative mutants of p53 on the generation of iPS cells. […] After sequencing verification, cDNA was transferred to pMXs-gw by Gateway cloning technology (Invitrogen). […]

Nanog-GFP, p53-null MEFs = experiment: iPS generation by the three factors co-transduced with wild-type or mutant p53, p53-null MEFs; type: cell-based, mouse; conditions: retroviral co-transduction, counted 28 days after transduction
Excerpt: as §1, §2, §3

p21: cyclin-dependent kinase inhibitor 1A (p21, Cip1), p53 target gene, forcibly expressed by retrovirus
iPS cell generation (p53-null MEF): markedly decreased | counteraction of the effect of the p53 shRNA on iPS cell generation (HDF): effectively counteracted

O=[N+]([O-])c1ccc(-c2cn3c4c(sc3n2)CCCC4)cc1 [Pifithrin α, p-Nitro, Cyclic, 2-(4-Nitrophenyl)imidazo[2,1-b]-5,6,7,8-tetrahydrobenzothiazole]
increase in the number of GFP-positive colonies [1]: about 4 times

B1: p53P275S: dominant negative mutant of mouse p53, proline 275 to serine, expressed from retroviral vector pMXs-p53P275S (protein, UniProt P02340 1-390, looked up, variant P275S)
Cellular tumor antigen p53: MTAMEESQSDISLELPLSQETFSGLWKLLPPEDILPSPHCMDDLLLPQDVEEFFEGPSEALRVSGAPAAQDPVTETPGPVAPAPATPWPLSSFVPSQKTYQGNYGFHLGFLQSGTAKSVMCTYSPPLNKLFCQLAKTCPVQLWVSATPPAGSRVRAMAIYKKSQHMTEVVRRCPHHERCSDGDGLAPPQHLIRVEGNLYPEYLEDRQTFRHSVVVPYEPPEAGSEYTTIHYKYMCNSSCMGGMNRRPILTIITLEDSSGNLLGRDSFEVRVCACSGRDRRTEEENFRKKEVLCPELPPGSAKRALPTCTSASPPQKKKPLDGEYFTLKIRGRKRFEMFRELNEALELKDAHATEESGDSRAHSSYLKTKKGQSTSRHKKTMVKKVGPDSD
increase in the number of GFP-positive colonies ([2]; 3 factors, counted on day 28): about 3 times | increase in the number of GFP-positive colonies ([2]; 4 factors, counted on day 21): about 4 times | number of GFP-positive colonies / efficiency of iPS cell generation [3]: substantial increase

B2: S58A: transactivation-negative mouse p53 mutant, serine 58 to alanine, retrovirally expressed (protein, UniProt P02340 1-390, looked up, variant S58A)
Cellular tumor antigen p53: B1 Cellular tumor antigen p53 with S58A, S275P
number of GFP-positive colonies (Nanog-GFP, p53-null MEFs): weaker effects

B3: D278N: transactivation-negative mouse p53 mutant, aspartic acid 278 to asparagine, retrovirally expressed (protein, UniProt P02340 1-390, looked up, variant D278N)
Cellular tumor antigen p53: B1 Cellular tumor antigen p53 with S275P, D278N
number of GFP-positive colonies (Nanog-GFP, p53-null MEFs): weaker effects
